Data as given in patent publication US20240309087A1 (SHANGHAI JUNSHI BIOSCIENCES, published 2024).

B1: 6C6.1 (antibody, V domains shown)
VH: EVQLQQSGPELVRPGASVRISCKASGYTFTDYNMNWVKQSHGKSLEWIGYIYPYNGGAGYNQNFKNKATLTVDTYSRAAYMELRSLTSEDSAVYYCARERGMQRDYFDYWGQGTILTVSS
VL: DIQMTQSPASLSVSVGETVTITCRTSENIYSNLAWYQQKQGKSPQLLVYAATNLADGVPSRFSGSGSGTQFSLKINSLQSGDFGSYFCQHFWGTPYTFGGGTKLEIK
notes: murine hybridoma antibody
B2: 2G10.1 (antibody, V domains shown)
VH: QVQLQQSGAELVKPGASVKLSCKASGYTFTSHYMYWLKQRPGQGLEWIGEINPSNGDTKFNEKFKSKATLTVDKSSSTAYMQLSSLTSEDSAVYYCTREKDAFSALDYWGQGTSVTDSS
VL: DIQMIQSPSSMFASLGDRVSLSCRASQGIRGHLDWYQQKPGGTIKLLIYSTSILNFGVPSRFSGSGSGSDYSLTISSLESEDFADYYCLQRNAYPLTFGAGTKLELK
notes: murine hybridoma antibody
B3: 6A6.1 (antibody, V domains shown)
VH: EVQLQQSGAELVRSGTSVTLSCTASGFNIRDYFIHWVKQRPEQGLEWIGWIIPASGDTDCAPIFQGKATLTADTFSNTAYLHLNSLTSEDTAVYYCNTWVWSPYAVDYWGQGTSVTVSS
VL: DVLMTQTPLSLPVSLGDQTSISCRSSQSIVHSNGNTYLHWYLQKPGQSPKLLIYKVSNRFSGVPDRFSGSGSGTDFTLKISRVEAEDLGVYYCFQGSHVPWTFGGGTRLEIK
notes: murine hybridoma antibody
B4: 5B1.1 (antibody, V domains shown)
VH: EVQLQQSGAELVRSGTSVTLSCTASGFNIRDYFIHWVKQRPEQGLEWIGWIIPASGDTDCAPIFQGKATLTADTFSNTAYLHLNSLTSEDTAVYYCNTWVWSPYAVDYWGQGTSVTVSS
VL: DIVMTQFPSSLSVPVGEKVTMNCKSSQSLLNSGNQKNFLAWYQQKPGQPPKLLIYGASTRESGVPYRFTGSGSGTDFTLTISSVQAEDLAVYYCQNDHSYPWTFGGGTKLEIK
notes: murine hybridoma antibody
B5: 7C2.1 (antibody, V domains shown)
VH: DVKLVESGGGLVKLGGSLKLSCAASGFTFSSYHMSWIRQTPEKRLELVAAINSNGINTYYLDTVKGRFTISRDNAKNTLYLQMSSLKSEDTALYYCARHEDYYGFAMDYWGQGTSVTVSS
VL: SIVMTQTPKFLLVSAGDRVTITCKASQSVSNDVAWYQQKPGQSPKLLMYYVSNRFTGVPDRFTGSGYGTDFTFTINTVQAEDLAVYFCQQAYRSPWTFGGGTKLEIK
B6: 3D2.1 (antibody, V domains shown)
VH: DVQLVESGGGLVKLGGSLKLSCVASGFTFSSYHMSWIRQTPEKRLELVAAINSNDINTYYLDTVKGRFTISRDIAKNTLHLQMSSLKSEDTALYYCARHEDYYGFAMDYWGQGTSVTVSS
VL: DIQLTQSPASLSVSVGETVTITCRVSANIYSNLVWYHQRQGKSPQLLVYGGTNLADGVPSRFSGSGSGTQFSLKINSLQSEDFGSYHCQHFWSTPYTFGGGTKLEIK
B7: 5C10.1 (antibody, V domains shown)
VH: DVKLVESGGGLVKLGGSLKLSCAASGFTFSSYHMSWVRQTPEKRLELVAAISRDGDSTYYPDTVKGRFTISRDDAENTLYLQMSSLKSEDTALYYCSRHEDYFGFAMDSWGQGTSVTVSS
VL: SIVMTQTPKFLLVSAGDRVTITCKASQSVTNDVAWYQQKPGQSPKLLMYYVSNHYTGVPDRFIGSGYGTDFTFTISTVQAEDLAVYFCQQAYRSPWTFGGGTKLEIK
B8: 6A10.1 (antibody, V domains shown)
VH: DVKLVESGGGLVKLGGSLKLSCAASGFTFSSYHMSWVRQTPEKRLELVAAINSNVISTYYLDTVKGRFTISRDNAKNTLYLQMSSLKSEDTALYYCARHEDYYGFAMDYWGQGTSVTVSS
VL: SIVMTQTPKFLLVSAGDRVTITCKASQSVSNDVAWYQEKPGQSPKLLMYYVSHRFTGVPDRFTGSGYGTDFTFTINTVQAEDLAVYFCHQAYRSPWTFGGGTKLEIK
B9: 8D3.1 (antibody, V domains shown)
VH: QIQLVQSGPELKKPGETVKISCKASGYTFTDYSMHWVKQAPGKGLKWVGWISTETAQPTYADDFRGRFAFSLETSASTAYLQINNLRNEDTATYFCATGNYGWYFSVWGAGTTVTVSS
VL: ENVLTQSPAIMSASPGEKVTMTCRATSGVSSSYLFWYQQKSGASPKIWIYSTSNLASGVPTRFSGSGSGTSYSLTISSVEAEDAATYYCQQYSGYPYTFGGGTKLEIK
notes: murine hybridoma antibody
B10: 6D2.1 (antibody, V domains shown)
VH: EVQLQQSGPELVKPGASVKISCKASGYTFTDYNIHWVKQSHGKRPDWIGYNYPYNGGAGYNQNFRSRATLTVDKFSSTAYMELRSLTSEDSAVYYCAGEEVRRGPFYFWGQGTSVTVSS
VL: DIQMTQSPDSLSASVGETVTITCRTSENIYSFLVWYQQKQGKSPQLLVYNAKTLAEGVPSRFSGSGSGTQFSLKINSLQPEDFGTYYCQHYYGTPYTFGGGTKLEIK
notes: murine hybridoma antibody
B11: 1D11.1 (antibody, V domains shown)
VH: EVQLQQSGPELVKPGASVKISCKASGYPFINYNIHWLRQSRGKSLEWIGYVYPYNGVPGYNQKFKSKATLTADNSFSTAYMEFRSLTSEDSAVYFCARERGRDYFDSWGQGTSLTVSS
VL: DIQLTQSPASLSVSVGETVTITCRVSANIYSNLVWYHQRQGKSPQLLVYGGTNLADGVPSRFSGSGSGTQFSLKINSLQSEDFGSYHCQHFWSTPYTFGGGTKLEIK
notes: murine hybridoma antibody
B12: 4E5.1 (antibody, V domains shown)
VH: EVMLVESGGGLVKPGGSLKLSCAASGFTFSNYIMSWVRQTPDMRLEWVATISSGGSSTYYVDRVKGGFPFSRDSVKYILYVHTSSLRSADTAIYYCAKHEDWDPLYYYSMDYWGQGTSVTVSS
VL: QIVLTQSPTVMSASPGDKVTMTCSASSSVSYMYWFQQKPGSSPRLLIYDTSHLAFGVPSRFSGSRSGTSYSLTISRMEAEDTATYYCQQWTTYPLTFGAGTKLELK
notes: murine hybridoma antibody

Legend:
[1] = biological target: T1, hCD112R mFC recombinant protein (human; murine, UniProt Q6DKI7 41-160); experiment: FACS competition, hCD112R mFc on CHO CD112 cells
T1 construct: range 41-160; expressed in 293E cells; also called hCD112R ECD mFC; hCD112R-ECD-mFC; not shown: murine IgG2a Fc domain (MX2-mFc vector)
T1 sequence (looked up): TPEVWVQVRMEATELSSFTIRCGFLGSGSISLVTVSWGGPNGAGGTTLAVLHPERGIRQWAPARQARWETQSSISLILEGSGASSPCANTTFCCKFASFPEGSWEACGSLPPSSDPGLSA
Description: Unbound antibodies were then washed with a staining buffer and the cells were incubated with 1% (v/v) goat anti-mouse IgG Fc fluorescent secondary antibodies (Jackson ImmunoResearch) prepared in a staining buffer at 4° C. for 30 min in the dark. Finally, the cells were collected by using a flow cytometer, and the fluorescent antibodies bound to the cell surface were detected. Raw data were analyzed by using FlowJo to obtain MFI values, and a four-parameter curve fitting was performed by using GraphPad Prism software to obtain IC₅₀ values.

[2] = biological target: T1, hCD112R mFC recombinant protein; experiment: Biacore T200, antibody captured, hCD112R mFc injected
Description: Biacore T200 was used to assay the binding affinity of the anti-CD112R hybridoma antibodies for the recombinant hCD112R mFc protein. […] antibody fragments (Jackson ImmunoResearch) were coupled to the surface of a CM5 chip, and the anti-CD112R hybridoma antibodies were each captured by using the chip, after which recombinant hCD112R mFc proteins at different concentrations were injected into the CM5 chip.

[3] = biological target: T2, human CD112R on Jurkat CD112R effector cells (human, UniProt Q6DKI7 1-326); experiment: cell-based or functional assay
T2 sequence (looked up): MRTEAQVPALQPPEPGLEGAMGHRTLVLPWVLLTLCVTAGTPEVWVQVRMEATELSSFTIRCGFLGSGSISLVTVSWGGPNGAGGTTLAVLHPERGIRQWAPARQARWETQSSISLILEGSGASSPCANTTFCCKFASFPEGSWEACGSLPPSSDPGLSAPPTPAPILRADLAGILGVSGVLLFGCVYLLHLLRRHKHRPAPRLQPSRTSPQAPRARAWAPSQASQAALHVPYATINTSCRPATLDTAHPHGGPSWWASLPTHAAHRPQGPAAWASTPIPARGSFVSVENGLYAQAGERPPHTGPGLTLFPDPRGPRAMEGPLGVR

Binder	IC50 [1]	Kd [2]	EC50, CD112R/CD112 NFAT-luciferase reporter [3]
B1	0.0229 µg/mL	0.0205 nM	–
B2	0.261 µg/mL	0.0302 nM	0.0729 µg/mL
B3	0.145 µg/mL	0.0174 nM	–
B4	0.147 µg/mL	0.0163 nM	–
B5	–	–	0.0379 µg/mL
B6	–	–	0.0493 µg/mL
B7	–	–	0.0404 µg/mL
B8	–	–	0.0507 µg/mL
B9	0.148 µg/mL	0.0158 nM	–
B10	0.272 µg/mL	0.0134 nM	–
B11	0.207 µg/mL	0.0236 nM	–
B12	0.111 µg/mL	0.00926 nM	0.0552 µg/mL
